{"source": "patent US20090298781A1", "about": "“COMPOUNDS FOR THE INHIBITION OF APOPTOSIS” (CONSEJO SUPERIOR DE, priority 2005, published 2009)", "key": {"recombinant Apaf-1": {"biological_target": "T1, recombinant Apaf-1 (Homo sapiens, UniProt O14727)", "T1 construct": "made in house", "T1 sequence (O14727 1-1248)": "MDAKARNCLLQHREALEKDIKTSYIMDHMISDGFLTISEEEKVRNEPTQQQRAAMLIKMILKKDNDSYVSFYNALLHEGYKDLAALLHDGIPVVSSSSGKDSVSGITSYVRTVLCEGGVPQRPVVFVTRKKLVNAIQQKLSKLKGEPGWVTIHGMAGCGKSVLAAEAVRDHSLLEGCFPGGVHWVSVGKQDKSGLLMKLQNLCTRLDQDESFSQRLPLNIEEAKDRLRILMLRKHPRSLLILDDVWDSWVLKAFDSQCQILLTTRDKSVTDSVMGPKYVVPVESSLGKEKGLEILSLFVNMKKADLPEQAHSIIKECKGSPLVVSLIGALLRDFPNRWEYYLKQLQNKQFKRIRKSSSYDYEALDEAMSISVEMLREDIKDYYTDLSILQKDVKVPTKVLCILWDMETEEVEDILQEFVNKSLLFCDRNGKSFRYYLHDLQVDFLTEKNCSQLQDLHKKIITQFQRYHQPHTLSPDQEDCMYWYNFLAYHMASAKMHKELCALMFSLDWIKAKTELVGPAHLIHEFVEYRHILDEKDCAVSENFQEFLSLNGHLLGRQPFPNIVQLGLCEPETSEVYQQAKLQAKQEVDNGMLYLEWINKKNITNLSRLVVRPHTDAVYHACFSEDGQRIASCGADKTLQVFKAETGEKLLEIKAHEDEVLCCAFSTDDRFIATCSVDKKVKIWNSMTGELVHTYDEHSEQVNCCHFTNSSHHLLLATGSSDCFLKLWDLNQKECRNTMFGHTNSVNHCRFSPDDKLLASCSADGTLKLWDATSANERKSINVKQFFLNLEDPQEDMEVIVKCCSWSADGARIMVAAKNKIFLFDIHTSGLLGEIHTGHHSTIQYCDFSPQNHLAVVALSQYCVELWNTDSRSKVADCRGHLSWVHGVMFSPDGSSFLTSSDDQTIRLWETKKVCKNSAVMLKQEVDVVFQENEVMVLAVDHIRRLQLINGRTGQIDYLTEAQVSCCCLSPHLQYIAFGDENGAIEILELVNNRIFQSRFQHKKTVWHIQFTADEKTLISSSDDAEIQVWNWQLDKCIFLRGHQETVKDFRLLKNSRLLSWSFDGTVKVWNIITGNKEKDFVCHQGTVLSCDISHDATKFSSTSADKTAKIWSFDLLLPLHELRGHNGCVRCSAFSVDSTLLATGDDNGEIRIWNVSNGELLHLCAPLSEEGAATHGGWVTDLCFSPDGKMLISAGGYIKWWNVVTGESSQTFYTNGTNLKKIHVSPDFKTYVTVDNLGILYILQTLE", "test": "Cell-free caspase inhibition assay, Hek-293 FT cytoplasmatic fraction with recombinant Apaf-1", "type": "biochemical", "settings": "Hek-293 FT fraction + recombinant Apaf-1 (FIG. 1), read-out: IC50, concentration needed to inhibit 50% of caspase activity", "procedure": "(§1) The activity of the compounds regards their specific target within the apoptotic machinery was assessed. Apaf-1 oligomerisation is a molecular event that leads to the activation of the apoptosome formation, which ends up in the induction of apoptosis. These experiments were performed in cell-free and in cellular assays.\nFor the cell-free assays, Hek-293 cytoplasmatic extracts were prepared as described before (Malet et al, 2005) and a partitioning of the complete cell extract was carried out. Concomitantly, recombinant Apaf-1 was purified according to Malet et al, 2005. The FT fraction (containing caspase-3 and -9 but lacking Apaf-1), was incubated with recombinant Apaf-1 in the presence of different concentrations of the compounds (see FIG. 1). The activity of the compounds was analysed by the inhibition of caspase activity (see above).\nFIG. 1: Cell-free caspase inhibition assay using Hek-293 FT cytoplasmatic fraction incubated with recombinant Apaf-1 in the presence of different concentrations the compound IIa.1."}, "U937 cell line": {"tested_on": "U937 cell line", "test": "MTT assay, toxicity (cell viability), U937", "type": "cell-based", "settings": "U937, 24 h", "procedure": "(§2) The MTT assay measures cell proliferation as well as reduction in cell viability when metabolic events lead to apoptosis or necrosis. It can also be used to assess the rate of survival of a given cell line when it is incubated in the presence of xenobiotics. The reduction of tetrazolium salts is accepted as a reliable way to analyse cell proliferation. The yellow tetrazolium MTT (3-(4,5-dimethylthiazolyl-2)-2,5-diphenyltetrazolium bromide) is reduced by metabolically active cells and results in the intracellular formation of purple formazan that can be spectrophotometrically measured after solubilisation with DMSO.\n(§3) The MTT assay was used in this invention to assess the toxicity of compounds at different concentrations. To analyse their potential impairment in cell viability, compounds were added to Saos-2 and U937 cell lines at different concentrations and incubated at different times. Results are expressed by percentage cell viability."}, "[1]": {"tested_on": "Apaf-1 induced apoptosis, U937 cells", "test": "Inhibition of Apaf-1-induced apoptosis, cellular assay, U937", "type": "cell-based", "settings": "U937 treated with apoptosome activator, 50 μM drug-eq", "procedure": "(§4) The time-dependent inhibition of caspase induced by the compounds described in this invention was analysed. Cell lines were grown in the presence or absence of compounds (50 μM) at different times. Caspase activity was assayed using Saos-2 or U937 cell extracts and Ac-DEVD-afc (N-acetyl-Asp-Glu-Val-Asp-afc(7-amino-4-trifluoromethyl coumarin)) as substrate (20 μM). Caspase activity was continuously monitored by the liberation of fluorescent afc using a Cytofluor 4000 fluorimeter (excitation 400 nm; emission 508 nm) for 1 hour. The effect of the compounds on the caspase activity was expressed as the percentage of inhibition in the fluorescence signal of treated cells vs. the non-treated cells (control).\nas §1\n(§5) For the cellular assays, Saos-2 and U937 cells were treated with an apoptosome activator (Nguyen and Wells, Proc. Natl. Acad. Sci. USA 2003, 100:7533-7538), which specifically induces Apaf-1 oligomerisation. […] The capacity of the compounds of inhibiting the Apaf-1 induced apoptosis was analysed by the inhibition of caspase activity (see above)."}, "Saos-2 cell line": {"tested_on": "Saos-2 cell line", "test": "MTT assay, toxicity (cell viability), Saos-2", "type": "cell-based", "procedure": "as §2, §3"}, "[2]": {"tested_on": "Apaf-1 induced apoptosis, Saos-2 cells", "test": "Inhibition of Apaf-1-induced apoptosis, cellular assay, Saos-2", "type": "cell-based", "settings": "Saos-2 treated with apoptosome activator, 50 μM drug-eq", "procedure": "as §4, §1, §5"}, "[3]": {"tested_on": "Caspase activity, U937 cell extracts", "test": "Caspase inhibition assay, U937 cell extracts", "type": "cell-based", "settings": "50 μM drug-eq.", "procedure": "as §4, with “Cell lines were grown in the presence or absence of compounds (50 μM) at different times.” left out"}, "[4]": {"tested_on": "Caspase activity, Saos-2 cell extracts", "test": "Caspase inhibition assay, Saos-2 cell extracts", "type": "cell-based", "settings": "50 μM drug-eq.", "procedure": "as §4, with “Cell lines were grown in the presence or absence of compounds (50 μM) at different times.” left out"}}, "note": "pIC50: −log10 of the molar value. Non-standard residues stand in square brackets, D forms with d. Residues, ends and D or L forms follow the SMILES beside them. *: point of attachment. X1 = O=C1CC(C(=O)*)N(CCC(c2ccccc2)c2ccccc2)C(=O)CN1CCc1ccc(Cl)cc1Cl; N(2,4-Cl2-phenethyl)Gly = O=C(O)CNCCc1ccc(Cl)cc1Cl", "data": [{"molecule": "NCCCC[C@H](NC(=O)CNC(=O)CNC(=O)CN(CCc1ccc(Cl)cc1Cl)C(=O)C1CC(=O)N(CCc2ccc(Cl)cc2Cl)CC(=O)N1CCC(c1ccccc1)c1ccccc1)C(N)=O", "note": "(stereo partly drawn) [IIa.1, 1-[2-(2,4-Dichlorophenyl)ethyl]-3-(3,3-diphenyl-propyl)-3,7-dioxo[1,4]diazepane-5-carboxylic acid {[({[(5-amino-1-carbamoylpentylcarbamoyl)methyl]-carbamoyl}methyl)carbamoyl]methyl}-[2-(2,4-dichlorophenyl)ethyl]amide] (X1-[N(2,4-Cl2-phenethyl)Gly]GGK-NH2)", "values": [{"measurement": "pIC50", "setting": "recombinant Apaf-1", "value": "~4.52"}]}, {"molecule": "Poly-L-glutamic acid-[1-[2-(2,4-Dichlorophenyl)ethyl]-3-(3,3-diphenyl-propyl)-3,7-dioxo[1,4]diazepane-5-carboxylic acid {[({[(5-amino-1-carbamoylpentylcarbamoyl)methyl]-carbamoyl}methyl)carbamoyl]methyl}-[2-(2,4-dichlorophenyl)ethyl]amide] conjugate [III.1]", "values": [{"measurement": "% Cell viability", "setting": "U937 cell line; 20 μM drug-eq.", "value": 98, "unit": "%"}, {"measurement": "% Cell viability", "setting": "U937 cell line; 50 μM drug-eq.", "value": 96, "unit": "%"}, {"measurement": "% Cell viability", "setting": "U937 cell line; 100 μM drug-eq.", "value": 84, "unit": "%"}, {"measurement": "% Cell viability", "setting": "U937 cell line; 250 μM drug-eq.", "value": 50, "unit": "%"}, {"measurement": "% Cell viability", "setting": "U937 cell line; 500 μM drug-eq.", "value": 27, "unit": "%"}, {"measurement": "% Inh. caspase activity", "setting": "[1]; 24 h", "value": 27, "unit": "%"}, {"measurement": "% Inh. caspase activity", "setting": "[1]; 48 h", "value": 95, "unit": "%"}, {"measurement": "% Cell viability", "setting": "Saos-2 cell line; Saos-2, 24 h, 20 μM drug-eq.", "value": 96, "unit": "%"}, {"measurement": "% Cell viability", "setting": "Saos-2 cell line; Saos-2, 24 h, 50 μM drug-eq.", "value": 99, "unit": "%"}, {"measurement": "% Cell viability", "setting": "Saos-2 cell line; Saos-2, 24 h, 100 μM drug-eq.", "value": 93, "unit": "%"}, {"measurement": "% Cell viability", "setting": "Saos-2 cell line; Saos-2, 24 h, 250 μM drug-eq.", "value": 75, "unit": "%"}, {"measurement": "% Cell viability", "setting": "Saos-2 cell line; Saos-2, 24 h, 500 μM drug-eq.", "value": 35, "unit": "%"}, {"measurement": "% Cell viability", "setting": "Saos-2 cell line; Saos-2, 48 h, 20 μM drug-eq.", "value": 95, "unit": "%"}, {"measurement": "% Cell viability", "setting": "Saos-2 cell line; Saos-2, 48 h, 50 μM drug-eq.", "value": 87, "unit": "%"}, {"measurement": "% Cell viability", "setting": "Saos-2 cell line; Saos-2, 48 h, 100 μM drug-eq.", "value": 95, "unit": "%"}, {"measurement": "% Cell viability", "setting": "Saos-2 cell line; Saos-2, 72 h, 20 μM drug-eq.", "value": 86, "unit": "%"}, {"measurement": "% Cell viability", "setting": "Saos-2 cell line; Saos-2, 72 h, 50 μM drug-eq.", "value": 63, "unit": "%"}, {"measurement": "% Cell viability", "setting": "Saos-2 cell line; Saos-2, 72 h, 100 μM drug-eq.", "value": 68, "unit": "%"}, {"measurement": "% Inh. caspase activity", "setting": "[2]; 24 h", "value": 22, "unit": "%"}, {"measurement": "% Inh. caspase activity", "setting": "[2]; 48 h", "value": 54, "unit": "%"}, {"measurement": "% Inh. caspase", "setting": "[3]; U937, 24 h", "value": 74, "unit": "%"}, {"measurement": "% Inh. caspase", "setting": "[3]; U937, 48 h", "value": 85, "unit": "%"}, {"measurement": "% Inh. caspase", "setting": "[3]; U937, 72 h", "value": 100, "unit": "%"}, {"measurement": "% Inh. caspase", "setting": "[4]; Saos-2, 24 h", "value": 67, "unit": "%"}, {"measurement": "% Inh. caspase", "setting": "[4]; Saos-2, 48 h", "value": 72, "unit": "%"}, {"measurement": "% Inh. caspase", "setting": "[4]; Saos-2, 72 h", "value": 100, "unit": "%"}]}]}
